The results in this text go back to patent US20150057436A1 (ARGEN X, published 2015).

A value given as a limit tells only on which side of the number the result lay.

In assay [1] the target is T1, human IL-1 Beta (human, UniProt P01584 117-269, biotinylated in the Fab, phage and competition ELISAs).
T1 construct: also called biot-IL-1 Beta; biotinylated IL-1 Beta
Description: ELISA: Fab captured on anti-myc plate, biot-IL-1 Beta, streptavidin-HRP. The method, then: For this the Fabs were captured on an anti-myc coated Maxisorp plate. Biotinylated human IL-1 Beta was added and bound cytokine was detected using HRP-conjugated streptavidin.
The genes of these Fabs were ordered as synthetic genes with GeneArt (Germany) and were subsequently produced in E. coli, purified and tested for their ability to bind biot-IL-1 Beta. For this the Fabs were captured on an anti-myc coated Maxisorp plate. Biotinylated human IL-1 Beta was added and bound cytokine was detected using HRP-conjugated streptavidin. The read out of this assay is represented in FIG. 3 below. [0459] […] [0460] Partial (wt Vλ/safe VH) and complete (wt Vλ/hum VH) humanization of the VH domain of 1E2 generated a functional Fab.
In general terms: An ELISA detects its analyte on a solid surface through an enzyme-linked reagent.

The next assay concerns the target T2, neutravidin (UniProt P02701 25-152).
T2 construct: Capture protein of the phage ELISA, tested alone as the negative control
Description: phage ELISA on neutravidin coated wells, crude phage extract, anti-M13-HRP. The procedure: (§1) The humanized variants of clone 1F2 were tested with phage expressing gene3-Fabs fusions (FIG. 4). Phage were produced from 4 independent clones for each construct: [0462] wt 1F2 and wt 1E2 (llama Vλ and VH fused to human CA and CH1) [0463] safe variant 1F2 and safe variant 1E2 (partially humanized Vλ fused to human CA and CH1) [0464] hum 1F2 and hum 1E2 (fully humanized Vλ and VH fused to human CA and CH1)
(§2) Four clones for each Fab were tested to overcome clonal variation (due to bacterial growth, phage production efficiency and toxicity etc. . . . ). Phage ELISA was performed by capturing of biotinylated IL-1 Beta on neutravidin coated Maxisorp plate and subsequent incubation of crude phage extract (i.e. bacterial medium). After extensive washing, bound phages were detected with an anti-M13-HRP monoclonal antibody. […] [0466] Back mutations in the framework regions of 1F2 VL and VH domains to the closest human germline successfully yield partially (safe) and fully (hum) humanized variants, maintaining antigen specificity. Successful Formatting of Camelid Variable Domains with Human Constant Domains

Assay [2] concerns the target T1, human IL-1 Beta. Description: phage ELISA: biot-IL-1 Beta captured on neutravidin, crude phage, anti-M13-HRP. The method, then: as §1, §2
The target in assay [3] is T1, human IL-1 Beta. The experiment in a line: competition ELISA, periplasmic Fab extract; competitor: coated blocking mouse mAb; OD of biot-IL-1 Beta bound.
Target sequence in this assay (P01584 117-269 limits assumed): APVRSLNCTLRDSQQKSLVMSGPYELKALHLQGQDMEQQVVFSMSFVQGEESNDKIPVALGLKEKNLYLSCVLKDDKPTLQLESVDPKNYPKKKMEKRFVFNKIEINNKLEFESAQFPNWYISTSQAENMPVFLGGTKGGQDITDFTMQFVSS
Assay [4] concerns the target T1, human IL-1 Beta. The experiment in a line: cell-based or functional assay.
Target sequence in this assay (P01584 117-269 limits assumed): as above
The target of assay [5] is T1, human IL-1 Beta. The experiment in a line: ELISA based competition assay; competitor: antagonistic reference mouse mAb.
Target sequence in this assay (P01584 117-269 limits assumed): as above

What is called IC50 is the concentration that inhibits the measured activity by half.

T2 sequence (P02701 25-152): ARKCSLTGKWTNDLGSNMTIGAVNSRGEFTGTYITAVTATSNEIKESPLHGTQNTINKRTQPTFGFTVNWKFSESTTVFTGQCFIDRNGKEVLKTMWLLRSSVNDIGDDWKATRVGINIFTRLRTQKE

B1: wild type llama 1E2 Fab (Fab, V domains shown)
VH: EVQLVESGGGLVQPGGSLRLSCTASGFTFSNYWMYWVRQAPGKGLEWVSAINAAGSTYYADSVKGRFTISRDNAKNTLYLQMNSLQSEDTALYYCANLPRWGQGTQVTVSS
VL: QTVVTQEPSLSVSPGGTVTLTCGLSSGSVTSGNYPGWYQQKPGQAPRTLIYNTNSRYSGVPNRFSGSISGNKAALTITGAQPEDEADYYCAVYIGSSSYPVVFGGGTHLTVL
notes: Llama variable and llama constant domains, produced from pCB3; captured through its myc tag; also called Fab 1E2
For B1, in the assay with human IL-1 Beta [1], the binding result is “binds”.

B2: hum 1E2 (fully humanized Vλ and VH fused to human Cλ and CH1), phage expressing gene3-Fab fusion (Fab, V domains shown)
VH: EVQLVESGGGLVQPGGSLRLSCAASGFTFSNYWMYWVRQAPGKGLEWVSAINAAGSTYYADSVKGRFTISRDNSKNTLYLQMNSLRAEDTAVYYCANLPRWGQGTLVTVSS
VL: QTVVTQEPSFSVSPGGTVTLTCGLSSGSVTSGNYPGWYQQTPGQAPRTLIYNTNSRSSGVPDRFSGSILGNKAALTITGAQADDESDYYCAVYIGSSSYPVVFGGGTKLTVL
Turning to B2, the binding result in the assay with neutravidin is on record as “no binding”.

B3: chimeric 1E2 Fab (llama Vλ and VH fused to human Cλ and CH1) (Fab, V domains shown)
VH: EVQLVESGGGLVQPGGSLRLSCTASGFTFSNYWMYWVRQAPGKGLEWVSAINAAGSTYYADSVKGRFTISRDNAKNTLYLQMNSLQSEDTALYYCANLPRWGQGTQVTVSS
VL: QTVVTQEPSLSVSPGGTVTLTCGLSSGSVTSGNYPGWYQQKPGQAPRTLIYNTNSRYSGVPNRFSGSISGNKAALTITGAQPEDEADYYCAVYIGSSSYPVVFGGGTHLTVL
notes: VH fused to human CH1, Vλ fused to human Cλ; produced in E. coli from pCB5; myc tag; also called wt 1E2
Take B3: the binding result in the assay with human IL-1 Beta [1] was “binds”.

B4: wt 1E2 (llama Vλ and VH fused to human Cλ and CH1), phage expressing gene3-Fab fusion (Fab, V domains shown)
VH: EVQLVESGGGLVQPGGSLRLSCTASGFTFSNYWMYWVRQAPGKGLEWVSAINAAGSTYYADSVKGRFTISRDNAKNTLYLQMNSLQSEDTALYYCANLPRWGQGTQVTVSS
VL: QTVVTQEPSLSVSPGGTVTLTCGLSSGSVTSGNYPGWYQQKPGQAPRTLIYNTNSRYSGVPNRFSGSISGNKAALTITGAQPEDEADYYCAVYIGSSSYPVVFGGGTHLTVL
As to B4, in the assay with neutravidin, the binding result is listed as “no binding”.

B5: 1E2 Fab wt Vλ/safe VH (Fab, V domains shown)
VH: EVQLVESGGGLVQPGGSLRLSCAASGFTFSNYWMYWVRQAPGKGLEWVSAINAAGSTYYADSVKGRFTISRDNSKNTLYLQMNSLQSEDTAVYYCANLPRWGQGTQVTVSS
VL: QTVVTQEPSLSVSPGGTVTLTCGLSSGSVTSGNYPGWYQQKPGQAPRTLIYNTNSRYSGVPNRFSGSISGNKAALTITGAQPEDEADYYCAVYIGSSSYPVVFGGGTHLTVL
notes: also called wt/safe
With B5, the binding result with human IL-1 Beta [1] is “binds”.

B6: 1E2 Fab wt Vλ/hum VH (Fab, V domains shown)
VH: EVQLVESGGGLVQPGGSLRLSCAASGFTFSNYWMYWVRQAPGKGLEWVSAINAAGSTYYADSVKGRFTISRDNSKNTLYLQMNSLRAEDTAVYYCANLPRWGQGTLVTVSS
VL: QTVVTQEPSLSVSPGGTVTLTCGLSSGSVTSGNYPGWYQQKPGQAPRTLIYNTNSRYSGVPNRFSGSISGNKAALTITGAQPEDEADYYCAVYIGSSSYPVVFGGGTHLTVL
notes: also called wt/hum
Turning to B6, the binding result with human IL-1 Beta [1] is “binds”.

B7: hum 1F2 (fully humanized Vλ and VH fused to human Cλ and CH1), phage expressing gene3-Fab fusion (Fab, V domains shown)
VH: EVQLLESGGGLVQPGGSLRLSCAASGFTFSTYAMSWVRQAPGKGLEWVSGINTGGGSTGYADSVKGRFTISRDNSKNTLYLQMNSLRAEDTAVYYCAKDWMATTPWGQGTLVTVSS
VL: QTVVTQEPSFSVSPGGTVTLTCGLSSGSVTTNNYPGWYQQTPGQAPRTLIYNTNNRSSGVPDRFSGSILGNKAALTITGAQADDESDYYCALYMSSGSNNAVFGGGTKLTVL
notes: also called fully (hum) humanized 1F2
For B7, the binding result with neutravidin was “no binding”; with human IL-1 Beta [2], “binds”.

B8: Fab 1B3 (Fab, part only; not given: lambda light chain, V domains shown, not shown: a dimerising Fc or GST)
VH: EVQLVQSGAELRNPGASVKVSCKASGYTFTSYYIDWVRQAPGQGLEWMGRIDPEDGGTKYAQKFQGRVTFTADTSTSTAYVELSSLRSEDTAVYYCARSGRYELDYWGQGTQVTVSS
Consider B8, for which the OD with human IL-1 Beta [3] stood at 0.444 OD.

B9: Fab 1G1 (Fab, part only; not given: lambda light chain, V domains shown, not shown: a dimerising Fc or GST)
VH: EVQLVQSGAELRNPGASVKVSCKASGYTFTSYYTDWVRQAPGQGLEWMGRIDPEDGDTKYAQKFQGRVTFTADTSTSTAYVELTSLRSEDTAVYYCLRSGAYELDYWGQGTQVTVSS
In the case of B9, in the assay with human IL-1 Beta [3], the OD came to 0.498 OD.

B10: Fab 1C3 (Fab, part only; not given: lambda light chain, V domains shown, not shown: a dimerising Fc or GST)
VH: EVQLVESGGGLVQPGGSLRLSCAASGFTFSSYWMYWVRQAPGKGLEWVSAINTGGGRTYYADSVKGRFTISRDNAKNTLYLQMNSLKSEDTAVYYCAKGTSADGSSWYVPADPYDYWGQGTQVTVSS
Take B10: the OD with human IL-1 Beta [3] amounted to 0.386 OD. This molecule also had an IC50 in the bioassay with human IL-1 Beta [4] of 3 µg/mL. This molecule also had a concentration at which competition is seen with human IL-1 Beta [5] greater than 50 µg/mL.

B11: Fab 1A1 (Fab, part only; not given: lambda light chain, V domains shown, not shown: a dimerising Fc or GST)
VH: EVQLVESGGGLVQPGGSLRLSCAASGFTFDDYAMSWVRQAPGKGLEWVSTISWNGGATYYAESMKGRFTISRDNAKNTLYLQMNSLKSEDTAVYYCAKPYYSDYVGVEYDYWGQGTQVTVSS
B11 came in with an OD with human IL-1 Beta [3] of 0.205 OD. This molecule displayed an IC50 in the bioassay in the assay with human IL-1 Beta [4] of 10 µg/mL. This molecule also yielded a half-maximal inhibitory concentration (IC50) with human IL-1 Beta [5] of 12 µg/mL.
